Where a chain is given by its changes, count along the chain named.
Assays:
[1] = molecular target: T1, human FcRH5c (full length human FcRH5) (human, UniProt Q96RD9 16-977); test: FACS, EJM cells transfected with human FcRH5, anti-mouse Alexa-647; negative control
T1 construct: Used on transfected SVT2, 293, EJM and OPM2 cells and endogenously on MOLP-2 cells and CD19+ B cells; also called IRTA2c; huFcRH5
T1 sequence: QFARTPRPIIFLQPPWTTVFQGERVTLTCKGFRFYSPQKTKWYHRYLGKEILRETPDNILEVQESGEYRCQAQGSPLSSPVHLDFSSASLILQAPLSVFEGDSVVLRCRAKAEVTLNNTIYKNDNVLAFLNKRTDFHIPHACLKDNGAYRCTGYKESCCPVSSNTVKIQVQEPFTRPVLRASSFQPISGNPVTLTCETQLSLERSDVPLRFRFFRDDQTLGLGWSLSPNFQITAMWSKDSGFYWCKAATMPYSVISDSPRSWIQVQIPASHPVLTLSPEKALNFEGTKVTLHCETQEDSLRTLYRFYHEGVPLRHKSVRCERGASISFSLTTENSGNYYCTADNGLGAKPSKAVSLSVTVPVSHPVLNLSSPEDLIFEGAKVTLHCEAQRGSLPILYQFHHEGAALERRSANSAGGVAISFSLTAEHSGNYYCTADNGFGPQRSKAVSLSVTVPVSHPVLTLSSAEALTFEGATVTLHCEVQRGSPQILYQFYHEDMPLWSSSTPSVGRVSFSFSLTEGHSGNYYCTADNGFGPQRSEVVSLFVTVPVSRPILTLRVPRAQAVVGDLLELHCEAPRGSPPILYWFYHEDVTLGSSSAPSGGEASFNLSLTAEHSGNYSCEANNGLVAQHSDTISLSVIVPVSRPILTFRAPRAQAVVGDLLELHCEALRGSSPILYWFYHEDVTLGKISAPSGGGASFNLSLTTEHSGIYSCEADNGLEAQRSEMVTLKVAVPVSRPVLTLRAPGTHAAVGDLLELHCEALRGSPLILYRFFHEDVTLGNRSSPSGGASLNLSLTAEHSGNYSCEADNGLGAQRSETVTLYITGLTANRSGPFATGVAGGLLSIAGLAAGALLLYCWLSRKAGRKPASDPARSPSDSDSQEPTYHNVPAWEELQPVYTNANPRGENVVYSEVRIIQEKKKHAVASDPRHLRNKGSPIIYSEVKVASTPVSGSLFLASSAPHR

[2] = molecular target: T1, human FcRH5c (full length human FcRH5); test: FACS, OPM2 cells transfected with human FcRH5, anti-mouse Alexa-647; negative control
[3] = molecular target: T1, human FcRH5c (full length human FcRH5); test: FACS, 293 cells with wild type FcRH5c, supernatants 2.5 ug/ml, anti-mouse PE
Experimental: Two separate tests were designed to address dependency of binding on the presence of membrane proximal Ig-domain 9 (E11). First a truncated human FcRH5c mutant was generated that lacks Ig-domains 6-9 (amino acids 464-850 of SEQ ID NO:1) including the expected binding site for the antibodies derived from E11 immunization. This construct with N-terminal gD-tag was expressed in 293 cells and subjected to 2.5 ug/ml subclone supernatants followed by PE labeled goat anti-mouse secondary antibody (1:1000 dilution). None of the tested subclones bound to 293 cells that express the truncated human FcRH5c (FIG. 4A). In contrast binding was detected to 293 cells that express wild type human FcRH5c. Binding of gD or non-isoform selective antibody clone (10A8) was not altered by the mutation.

[4] = molecular target: T2, soluble FcRH5a isoform with C-terminal HIS-expression tag (human, UniProt Q96RD9-3 16-759); test: ELISA, His-tagged soluble FcRH5a captured by anti-His, anti-mouse HRP, OD 650
T2 construct: mature; also called IRTA2a
T2 sequence (looked up): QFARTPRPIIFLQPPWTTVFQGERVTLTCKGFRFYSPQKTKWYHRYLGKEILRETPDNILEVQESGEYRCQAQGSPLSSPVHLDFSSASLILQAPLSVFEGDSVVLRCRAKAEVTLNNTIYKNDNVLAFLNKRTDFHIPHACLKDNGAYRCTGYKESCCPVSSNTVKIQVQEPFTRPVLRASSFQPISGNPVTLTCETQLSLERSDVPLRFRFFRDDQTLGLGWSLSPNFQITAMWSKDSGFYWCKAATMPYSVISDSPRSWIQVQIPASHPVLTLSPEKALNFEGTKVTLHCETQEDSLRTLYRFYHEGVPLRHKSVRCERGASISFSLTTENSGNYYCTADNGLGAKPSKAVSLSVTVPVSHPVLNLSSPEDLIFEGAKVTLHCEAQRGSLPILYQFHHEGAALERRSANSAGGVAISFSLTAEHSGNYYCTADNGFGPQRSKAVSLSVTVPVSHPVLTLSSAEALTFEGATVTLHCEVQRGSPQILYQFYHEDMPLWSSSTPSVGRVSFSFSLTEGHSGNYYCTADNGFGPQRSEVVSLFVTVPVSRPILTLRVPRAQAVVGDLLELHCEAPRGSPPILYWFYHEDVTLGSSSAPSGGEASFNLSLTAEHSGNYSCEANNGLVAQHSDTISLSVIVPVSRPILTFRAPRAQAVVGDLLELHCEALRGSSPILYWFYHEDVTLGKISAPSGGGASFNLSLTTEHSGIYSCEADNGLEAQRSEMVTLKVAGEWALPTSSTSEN
Experimental: For this, 293 cells were transfected to express the soluble isoform with C-terminal HIS-expression tag. Expression of FcRH5a protein was confirmed with Western blot analysis using anti-HIS antibody. A 65 kD band was detected in conditioned media from FcRH5a but not vector transfected cells (not shown). For the ELISA, plates were coated with anti-HIS capture antibody and incubated 1 hour with 1:10 diluted conditioned media including the HIS-tagged soluble FcRH5a isoform. The E11 monoclonal antibodies were used for detection in 1-0.001 ug/ml concentration, incubated for 1 hour followed by incubation with goat anti-mouse HRP antibody and finally with TMB-substrate.

[5] = molecular target: T3, FcRH3 endogenously expressed on human NK cells (CD56+ cells of PBMC) (human, UniProt Q96P31 18-734); test: FACS, CD56+ NK cells of human PBMC, anti-mouse APC
T3 construct: whole, on cells; FcRH1 was also detected on CD56+ cells; also called endogenously expressed FcRH3
T3 sequence (looked up): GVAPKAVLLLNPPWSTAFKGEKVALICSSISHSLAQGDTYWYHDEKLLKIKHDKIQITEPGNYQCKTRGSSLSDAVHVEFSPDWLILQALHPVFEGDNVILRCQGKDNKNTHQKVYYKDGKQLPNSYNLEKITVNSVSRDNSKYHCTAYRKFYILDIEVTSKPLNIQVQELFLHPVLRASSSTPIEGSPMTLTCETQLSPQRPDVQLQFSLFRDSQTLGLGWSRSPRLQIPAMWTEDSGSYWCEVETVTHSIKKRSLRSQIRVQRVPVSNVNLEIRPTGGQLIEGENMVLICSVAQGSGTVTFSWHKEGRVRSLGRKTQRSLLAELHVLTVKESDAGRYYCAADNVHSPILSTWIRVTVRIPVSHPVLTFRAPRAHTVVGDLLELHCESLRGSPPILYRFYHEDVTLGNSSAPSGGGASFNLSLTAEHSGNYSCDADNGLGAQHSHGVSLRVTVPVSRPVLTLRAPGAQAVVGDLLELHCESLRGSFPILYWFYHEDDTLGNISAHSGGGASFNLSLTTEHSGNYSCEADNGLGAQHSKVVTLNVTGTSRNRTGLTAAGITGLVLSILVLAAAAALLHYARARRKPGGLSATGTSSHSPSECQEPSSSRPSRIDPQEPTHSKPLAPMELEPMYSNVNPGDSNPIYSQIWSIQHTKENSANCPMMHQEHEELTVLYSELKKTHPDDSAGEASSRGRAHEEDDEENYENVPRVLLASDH
Experimental: (§1) To test binding to endogenously FcRH5 expressing cancer cells or FcRH5 transfected cancer cells, cells were lifted using EDTA/PBS. 1×10⁵ cells were suspended in 100 ul and incubated […] with primary antibodies (1 volume of non-IgG quantitated subclone supernatant, 4 ug/ml IgG quantified subclone supernatant or […] purified monoclonal antibodies). Cells were washed twice with FACS buffer (PBS 1% BSA 2 mM EDTA) and incubated with 1:1000 dilution of goat anti-mouse secondary labeled with PE or 1:100 of goat anti-mouse APC. Cells were washed twice with FACS buffer and Flow cytometry analysis was done on a FACSCalibur. Direct […] of antibodies was done according to manufacturer's protocol (Invitrogen), when indicated. To analyze binding to NK or B cells, 1 million human PBMC were incubated with 4 ug/ml IgG quantified subclone supernatants for 60 min, washed and incubated with 1:100 dilution of goat anti-mouse secondary labeled with APC. Cells were then washed again twice and stained using anti-CD56 (PE; BD Biosciences #555516) and anti-CD19 (PE; BD Biosciences #340364) prior flow cytometry and analysis of binding to human CD56+ and CD19+ cells.
Since the overall signal in the FcRH3-expressing SVT2 cells was low, further testing was done using PBMCs from healthy donors. […]

[6] = molecular target: T1, human FcRH5c (full length human FcRH5); test: FACS, APC-labelled antibodies on SVT2 cells with full-length human FcRH5
[7] = molecular target: T1, human FcRH5c (full length human FcRH5); test: FACS, MOLP2 cells (endogenous FcRH5), 4 ug/ml
Experimental: as §1

[8] = molecular target: T1, human FcRH5c (full length human FcRH5); test: FACS, MOLP2 cells (endogenous FcRH5), 4 ug/ml; legend printed under FIG. 3E
Experimental: as §1

Q: What does the source list for mIgG (antibody)?
A: Mean:FL4-H [1]: 10.3; Mean:FL4-H [2]: 6.43

B1: 2H7.3 (antibody, IgG2b, V domains shown)
VH: EVQLQQSGPELWKPGASVKMSCKASGYTFTDYYMKWVKQTHGKSLEWIGDINPNNGETFYSQKFKGKATLTVDKSSTTAYMQLNSLTSEDSAVYYCARGLYRFDYWGQGTTLTVSSASTKGPSVFPLAP
VL: EIVLTQSPATLSVTPGDSVSLSCRASQNIRNNLHWYQQKSHESPRLLIKFTSQSISGIPSRFTGSGSGTDFTLSINSVETEDFGMYFCQQSNNWPQYTFGGGTKLEIKRTVAA
notes: Parent 2H7, subclone 2H7.3 and purified antibody treated as one; also called 2H7.3.mIgG2b
Q: Does B1 bind [3]?
A: binds

Q: Does B1 bind [4]?
A: binds

B2: 5A10.1.3 (antibody, IgG2b, V domains shown)
VH: EVQLQQSGPELWKPGASVKMSCKASGYTFTDYYMKWVKQSHGKSLEWIGDINPNNGETFYNQKFKGKATLTVDKSTSTAYMELNSLTTEDSAVYYCARGLYRFDYWGQGTTLTVSSAASTKGPSVFPLAP
VL: B1 VL with E1D, T10N, T14I, H41Q, T51A, I55M, I58T, S74T, S77T
notes: parent 5A10 and subclone 5A10.1 treated as the same antibody; also called 5A10.1.mIgG2b
Q: How did the “EC50 (read off the curve)” value [4] turn out when B2 was run?
A: ~0.02 ng/mL

B3: 1G7.2 (antibody, IgG1, V domains shown)
VH: EVQLQESGPGLVQPSQSLSITCTVSGFSLTRFGVHWVRQSPGKGLEWLGVIWRGGSTDYNAAFMSRLTITKDNSKSQVFFKLNSLKVDDTAIYYCSNHYYGSSDYALDNWGQGTSVTVSSASTKGPSVFPLAP
VL: DIVMTQSHKIMSTSVGDRVSITCKASQDVSNIVVWFQQKPGQSPNLLIYSASYRYTGVPDRFTGSGSGTDFTFTISSVQAEDLAVYYCQQHYSSPYTFGGGTKLEIKRTVAA
notes: Parent 1G7, subclone 1G7.2 and purified 1G7.2.mIgG1 treated as one antibody; also called 1G7.2.mIgG1
Q: Does B3 bind [5]?
A: no binding (tested: 4 ug/ml)

Q: Does B3 bind [6]?
A: binds

Q: Does B3 bind [4]?
A: no binding

B4: 3G7.1.5 (antibody, IgG2a, V domains shown)
VH: EVQLQQSGPELVKPGASVKMSCKASGYTFTDYYMKWVRQNHGKRLEWIGDINPYNGDTFYNQKFKDKATLTVDKSSSTAYMQFNSLTSEDSAVYYCARGLYFFHYWGQGTTLTVSSASTKGPSVFPLAP
VL: DIVLIQSPATLSVTLGGSVSLSCRASQSISNNLHWYQQKSHESPRLLIKFASQSISGIPSRFRGSGSGTDFTLTINSVETEDFGIYFCQQSNNWPQYTFGGGTKLELKRTVAA
notes: parent 3G7 and subclone 3G7.1 treated as the same antibody; also called 3G7.1.mIgG2a
Q: Does B4 bind [7]?
A: binds

B5: 5F1.1.5 (antibody, IgG2a, V domains shown)
VH: QVQLQQSGADLVRPGTSVKVSCKASGYAFTNYLIEWVKQRPGQGLEWIGVINPGSGGTNYNEKFKGKATLTADKSSSTAYMQLSSLTSDDSAVYFCARTRNYGYVIDYWGQGTTLTVSSASTKGPSVFPLAP
VL: QAVVTQESALTTSPGETVTLTCRSSTGTVTTSNFANWVQEKPDHLFTGLIGGTSNRAPGVPARFSGSLIGDKAALTITGAQTEDEAIYFCVLWCSNLWVFGGGTKLTVLGQPKAA
notes: parent 5F1 and subclone 5F1.1 treated as the same antibody; also called 5F1.1.mIgG2a
Q: Does B5 bind [8]?
A: binds

From patent publication US20150098900A1 (Genentech, published 2015)
